B1: PAR1-Venus [mouse] / RGS2-Luciferase [not stated] (parent)
chain 1: MQSAMFLAVQHDCRPMDKSAGSGHKSEEKREKMKRTLLKDWKTRLSYFLQNSSTPGKPKTGKKSKQQAFIKPSPEEAQLWSEAFDELLASKYGLAAFRAFLKSEFCEENIEFWLACEDFKKTKSPQKLSSKARKIYTDFIEKEAPKEINIDFQTKTLIAQNIQEATSGCFTTAQKRVYSLMENNSYPRFLESEFYQDLCKKPQITTEPHAT
chain 2: SFFLRNPSENTFELVPLGDEEEEEKNESVLLEGRAVYLNISLPPHTPPPPFISEDASGYLTSPWLTLFMPSVYTIVFIVSLPLNVLAIAVFVLRMKVKKPAVVYMLHLAMADVLFVSVLPFKISYYFSGTDWQFGSGMCRFATAAFYGNMYASIMLMTVISIDRFLAVVYPIQSLSWRTLGRANFTCVVIWVMAIMGVVPLLLKEQTTRVPGLNITTCHDVLSENLMQGFYSYYFSAFSAIFFLVPLIVSTVCYTSIIRCLSSSAVANRSKKSRALFLSAAVFCIFIVCFGPTNVLLIVHYLFLSDSPGTEAAYFAYLLCVCVSSVSCCIDPLIYYYASSECQRHLYSILCCKESSDPNSCNSTGQLMPSKMDTCSSHLNNSIYKKLLA

Variants of: B1
Experiment: BRET assay in live COS7 cells
Settings: with RGS2-Luciferase; RGS2-Luc 35 ng; PAR1R205A-Ven 1.5 µg; no Gα11; no TFLLR; parent: 0.028; read off a plot

response	Variant
0.032	chain 2 R164A

Same assay, conditions: with RGS2-Luciferase; RGS2-Luc 35 ng; PAR1R205A-Ven 1.5 µg; no Gα11; with TFLLR; parent: 0.048; read off a plot

response	Variant
0.037	chain 2 R164A

Same assay, conditions: with RGS2-Luciferase; RGS2-Luc 35 ng; PAR1R205A-Ven 1.5 µg; with 0.5 µg untagged Gα11; no TFLLR; parent: 0.062; read off a plot

response	Variant
0.047	chain 2 R164A

Same assay, conditions: with RGS2-Luciferase; RGS2-Luc 35 ng; PAR1R205A-Ven 1.5 µg; with 0.5 µg untagged Gα11; with TFLLR; parent: 0.086; read off a plot

response	Variant
0.048	chain 2 R164A

From PMC3990635
